# B1: library; numbered along this chain (parent)
# chain: MAAAGGARLLRAASAVLGGPAGRWLHHAGSRAGSSGLLRNRGPGGSAEASRSLSVSARARSSSEDKITVHFINRDGETLTTKGKVGDSLLDVVVENNLDIDGFGACEGTLACSTCHLIFEDHIYEKLDAITDEENDMLDLAYGLTDRSRLGCQICLTKSMDNMTVRVPETVADARQSIDVGKTS
# Variants of: B1
# Experiment: scaled log2 fold change in cell abundance, elesclomol vs control (0 = silent mean, 1 = nonsense mean) (scaled log2 ratio); higher = higher viability under elesclomol (loss of FDX1 cuproptosis function)
# Conditions: glucose 10 mM
# Method: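 Deep mutational scan of full-length human FDX1: a pooled saturation-mutagenesis ORF library (every residue 2-184 mutated to all 19 amino acids plus stop, and silent codons where available) was expressed by lentivirus in FDX1-knockout ABC1 (14 days) or HEK293T (11 days) cells grown with elesclomol (ES) or DMSO control. Variant abundance came from ORF sequencing. The log2 fold change (ES vs control, mean of duplicates) was centred on the silent-variant mean (0) and scaled to the nonsense-variant mean (1). Higher values mean greater viability under ES, i.e. loss of FDX1 function in cuproptosis.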
# [1] = with ABC1 FDX1 KO, elesclomol 5 nM, 14 days
# [2] = with HEK293T FDX1 KO, elesclomol 40 nM, 11 days
# 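Further: variant abundance is its share of total variant reads in each endpoint sample, from next-generation sequencing of the integrated ORF PCR-amplified out of genomic DNA.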
Variant,scaled log2 fold change [1],scaled log2 fold change [2]
MAAAGGARLLRAASAVLGGPAGRWLHHAGSRAGSSGLLRNRGPGGSAEASRSLSVSARARSSSEDKITVHFINRDGETLTTKGKVGDSLYDVVVENNLDIDGFGACEGTLACSTCHLIFEDHIYEKLDAITDEENDMLDLAYGLTDRSRLGCQICLTKSMDNMTVRVPETVADARQSIDVGKTS,-0.103,–
MAAAGGARLLRAASAVLGGPAGRWLHHAGSRAGSSGLLRNRGPGGSAEASRSLSVSARARSSSEDKITVHFINRDGETLTTKGKVGDSLVDVVVENNLDIDGFGACEGTLACSTCHLIFEDHIYEKLDAITDEENDMLDLAYGLTDRSRLGCQICLTKSMDNMTVRVPETVADARQSIDVGKTS,-0.0886,-0.208
MAAAGGARLLRAASAVLGGPAGRWLHHAGSRAGSSGLLRNRGPGGSAEASRSLSVSARARSSSEDKITVHFINRDGETLTTKGKVGDSLTDVVVENNLDIDGFGACEGTLACSTCHLIFEDHIYEKLDAITDEENDMLDLAYGLTDRSRLGCQICLTKSMDNMTVRVPETVADARQSIDVGKTS,-0.871,-0.404
MAAAGGARLLRAASAVLGGPAGRWLHHAGSRAGSSGLLRNRGPGGSAEASRSLSVSARARSSSEDKITVHFINRDGETLTTKGKVGDSLSDVVVENNLDIDGFGACEGTLACSTCHLIFEDHIYEKLDAITDEENDMLDLAYGLTDRSRLGCQICLTKSMDNMTVRVPETVADARQSIDVGKTS,-1,0.27
MAAAGGARLLRAASAVLGGPAGRWLHHAGSRAGSSGLLRNRGPGGSAEASRSLSVSARARSSSEDKITVHFINRDGETLTTKGKVGDSLWDVVVENNLDIDGFGACEGTLACSTCHLIFEDHIYEKLDAITDEENDMLDLAYGLTDRSRLGCQICLTKSMDNMTVRVPETVADARQSIDVGKTS,-0.148,0.134
MAAAGGARLLRAASAVLGGPAGRWLHHAGSRAGSSGLLRNRGPGGSAEASRSLSVSARARSSSEDKITVHFINRDGETLTTKGKVGDSLLGVVVENNLDIDGFGACEGTLACSTCHLIFEDHIYEKLDAITDEENDMLDLAYGLTDRSRLGCQICLTKSMDNMTVRVPETVADARQSIDVGKTS,0.216,0.254
MAAAGGARLLRAASAVLGGPAGRWLHHAGSRAGSSGLLRNRGPGGSAEASRSLSVSARARSSSEDKITVHFINRDGETLTTKGKVGDSLLFVVVENNLDIDGFGACEGTLACSTCHLIFEDHIYEKLDAITDEENDMLDLAYGLTDRSRLGCQICLTKSMDNMTVRVPETVADARQSIDVGKTS,0.29,-0.219
MAAAGGARLLRAASAVLGGPAGRWLHHAGSRAGSSGLLRNRGPGGSAEASRSLSVSARARSSSEDKITVHFINRDGETLTTKGKVGDSLLEVVVENNLDIDGFGACEGTLACSTCHLIFEDHIYEKLDAITDEENDMLDLAYGLTDRSRLGCQICLTKSMDNMTVRVPETVADARQSIDVGKTS,-0.0305,1.04
MAAAGGARLLRAASAVLGGPAGRWLHHAGSRAGSSGLLRNRGPGGSAEASRSLSVSARARSSSEDKITVHFINRDGETLTTKGKVGDSLLCVVVENNLDIDGFGACEGTLACSTCHLIFEDHIYEKLDAITDEENDMLDLAYGLTDRSRLGCQICLTKSMDNMTVRVPETVADARQSIDVGKTS,0.188,0.246

# From the supplement of paper PMC12855868
